The record followed here is paper PMC2188260.

Read-outs that look alike come from different tables or passages of the source.

Experiment in all cases: co-IP
The target of test [1] is human plasma gelsolin (human) (UniProt P06396).
The target of test [2] is gelsolin of rabbit lung macrophages (rabbit (endogenous in lung macrophages)).
For test [3] the target is unchanged. This is another data set of the same source.
The target is the same in test [4]. This is another data set of the same source.

human plasma gelsolin (human), sequence (P06396 28-782): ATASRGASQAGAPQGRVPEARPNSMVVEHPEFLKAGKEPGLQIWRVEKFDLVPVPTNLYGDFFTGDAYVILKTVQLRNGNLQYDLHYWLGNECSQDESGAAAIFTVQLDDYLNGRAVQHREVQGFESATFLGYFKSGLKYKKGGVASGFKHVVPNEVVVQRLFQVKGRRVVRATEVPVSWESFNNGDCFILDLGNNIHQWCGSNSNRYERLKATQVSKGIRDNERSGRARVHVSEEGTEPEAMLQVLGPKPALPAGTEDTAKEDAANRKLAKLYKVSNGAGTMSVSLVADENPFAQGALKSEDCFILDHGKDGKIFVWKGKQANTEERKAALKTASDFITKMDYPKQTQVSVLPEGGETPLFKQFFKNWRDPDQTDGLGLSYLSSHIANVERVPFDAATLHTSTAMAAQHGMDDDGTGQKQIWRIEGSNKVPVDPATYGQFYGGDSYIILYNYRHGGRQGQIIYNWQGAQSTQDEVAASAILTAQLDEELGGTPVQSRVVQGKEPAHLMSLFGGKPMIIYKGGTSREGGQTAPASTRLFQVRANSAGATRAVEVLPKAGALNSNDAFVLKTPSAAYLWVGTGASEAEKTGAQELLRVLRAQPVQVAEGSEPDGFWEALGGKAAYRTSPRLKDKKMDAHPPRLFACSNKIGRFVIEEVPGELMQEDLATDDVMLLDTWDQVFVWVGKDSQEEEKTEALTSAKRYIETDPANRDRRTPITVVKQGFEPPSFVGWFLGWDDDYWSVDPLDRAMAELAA

Consider “rabbit skeletal muscle actin (from UniProt P68135 1-377) (natural protein)”, for which the stoichiometry N (actin per gelsolin) in test [1] is 1.
On to “actin of rabbit lung macrophages (from UniProt P29751 1-375) (natural protein)”, for which, in test [2], the molar ratio of actin to gelsolin on the beads (actin per gelsolin) was determined as 0.5; the percent of gelsolin complexed with actin came to 50%; the percent of gelsolin in the EGTA-resistant complex (cells in suspension, 0 min) was determined as 20%; the percent of gelsolin in the EGTA-resistant complex (cells in suspension, 30 min) amounted to 90%. In test [2], the percent of total gelsolin complexed to actin (1 uM ionomycin, 30 s) turned out to be 80%; the percent of total gelsolin complexed to actin (before ionomycin) was determined as 50%; the percentage of gelsolin in an EGTA-resistant complex (DMSO, experiment 1) turned out to be 32%; the percentage of gelsolin in an EGTA-resistant complex (DMSO, experiment 2) turned out to be 34%. In test [2], the percentage of gelsolin in an EGTA-resistant complex (DMSO, experiment 3) was found to be 51%; the percentage of gelsolin in an EGTA-resistant complex (DMSO, experiment 4) was determined as 35%; the percentage of gelsolin in an EGTA-resistant complex (DMSO, mean value) stood at 38%; the percentage of gelsolin in an EGTA-resistant complex (FMLP, experiment 1) worked out at 23%. In test [2], the percentage of gelsolin in an EGTA-resistant complex (FMLP, experiment 2) is 24%; the percentage of gelsolin in an EGTA-resistant complex (FMLP, experiment 3) was determined as 25%; the percentage of gelsolin in an EGTA-resistant complex (FMLP, experiment 4) was 26%; the percentage of gelsolin in an EGTA-resistant complex (FMLP, mean value) is 25%. In test [2], this substance gave a percentage of gelsolin in an EGTA-resistant complex (no addition, experiment 1) of 43%; a percentage of gelsolin in an EGTA-resistant complex (no addition, experiment 2) of 40%; a percentage of gelsolin in an EGTA-resistant complex (no addition, experiment 3) of 51%; a percentage of gelsolin in an EGTA-resistant complex (no addition, experiment 4) of 47%. The same substance had a percentage of gelsolin in an EGTA-resistant complex (no addition, mean value) in test [2] of 45%. Besides, in test [3], the molar ratio of actin to gelsolin on the beads (actin per gelsolin) was 4. Moreover, in test [4], the molar ratio of actin to gelsolin on the beads (actin per gelsolin) came to 1 and the percent of gelsolin complexed with actin was 100%.
